For 1 molecule, Kd results are on record in PMC9428257 (2022).

Holding throughout (experiment): FACS
For assay [1], the target named is yeast-displayed mutant sBCMA V2 (V3 without N53D) (human, UniProt Q02223 1-54, S16G | H19Y | T36A).
The target in a further assay is Clone V5.
The next assay deals with Clone V8.

B1: human APRIL (a proliferation-inducing ligand) (ligand)
chain: AVLTQKQKKQHSVLHLVPINATSKDDSDVTEVMWQPALRRGRGLQAQGYGVRIQDAGVYLLYSQVLFQDVTFTMGQVVSREGQGRQETLFRCIRSMPSHPDRAYNSCYSAGVFHLHQGDILSVIIPRARAKLNLSPHGTFLGFVKL
Turning to B1, the Kd in assay [1] stood at 0.018 nM; with Clone V5 it was 7 pM; in the assay with Clone V8 it was 0.054 nM.
